Measured values published in patent US20240166688A1 (NIBEC, published 2024).

What follows are binders tested against HDAC5 protein (Abcam, MA, USA) (assay: SPR, Biacore T200; HDAC5 amine-coupled to CM5 chip, peptide as analyte, 1:1 model).
HDAC5 protein (Abcam, MA, USA), sequence (chain, as listed by the source): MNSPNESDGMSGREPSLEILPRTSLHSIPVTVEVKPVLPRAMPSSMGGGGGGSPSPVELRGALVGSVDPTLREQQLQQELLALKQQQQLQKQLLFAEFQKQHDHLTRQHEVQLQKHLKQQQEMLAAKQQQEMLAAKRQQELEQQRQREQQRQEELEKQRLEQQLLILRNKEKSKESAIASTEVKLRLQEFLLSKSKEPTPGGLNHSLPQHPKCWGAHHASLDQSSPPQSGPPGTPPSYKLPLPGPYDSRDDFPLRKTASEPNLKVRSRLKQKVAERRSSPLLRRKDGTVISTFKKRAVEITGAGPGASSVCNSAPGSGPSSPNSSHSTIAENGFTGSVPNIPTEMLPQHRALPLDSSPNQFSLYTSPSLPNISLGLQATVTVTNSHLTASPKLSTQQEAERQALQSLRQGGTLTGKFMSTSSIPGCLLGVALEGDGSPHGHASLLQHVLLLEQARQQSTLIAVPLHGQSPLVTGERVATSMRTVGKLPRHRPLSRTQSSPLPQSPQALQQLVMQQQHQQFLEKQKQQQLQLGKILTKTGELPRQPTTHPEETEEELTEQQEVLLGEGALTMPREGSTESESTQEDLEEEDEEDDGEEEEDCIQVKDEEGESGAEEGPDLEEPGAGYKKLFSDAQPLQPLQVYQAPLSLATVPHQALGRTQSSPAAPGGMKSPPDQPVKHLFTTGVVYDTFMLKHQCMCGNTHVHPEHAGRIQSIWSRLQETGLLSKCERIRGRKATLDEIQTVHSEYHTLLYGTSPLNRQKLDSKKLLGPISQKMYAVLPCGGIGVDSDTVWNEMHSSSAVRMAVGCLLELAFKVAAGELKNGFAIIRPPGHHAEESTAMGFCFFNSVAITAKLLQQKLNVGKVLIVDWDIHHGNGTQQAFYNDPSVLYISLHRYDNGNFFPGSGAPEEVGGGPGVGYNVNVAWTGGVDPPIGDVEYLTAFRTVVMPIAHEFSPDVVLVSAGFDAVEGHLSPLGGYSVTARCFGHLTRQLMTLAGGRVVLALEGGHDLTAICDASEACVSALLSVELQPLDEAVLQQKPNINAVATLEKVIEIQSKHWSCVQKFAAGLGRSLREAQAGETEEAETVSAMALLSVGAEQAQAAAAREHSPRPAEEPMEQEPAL

Q: Which Kd does the source give for GKCSTRGRKCCRRKK (also called AIP) [peptide of SEQ ID NO: 1] here?
A: 676 nM

Q: And the koff?
A: 0.0726 s⁻¹

Q: And the kon?
A: 108000 M⁻¹ s⁻¹

Q: Which results are given for GKMSTRGRKMMRRKK [peptide of SEQ ID NO: 8 (M7)]?
A: Kd: 86.8 nM; koff: 0.00478 s⁻¹; kon: 55000 M⁻¹ s⁻¹

Q: How did the Kd turn out when GKCSTRGRKMCRRKK [peptide of SEQ ID NO: 3 (M2)] was run?
A: 725 nM

Q: What about the koff of the same binder?
A: 0.0595 s⁻¹

Q: What about the kon of the same binder?
A: 82100 M⁻¹ s⁻¹

Q: For GKMSTRGRKCCRRKK [peptide of SEQ ID NO: 5 (M4)], which Kd is on record?
A: 468 nM

Q: And the koff?
A: 0.0309 s⁻¹

Q: What about the kon of the same binder?
A: 65900 M⁻¹ s⁻¹

Q: What does the source list for GKMSTRGRKCMRRKK [peptide of SEQ ID NO: 7 (M6)]?
A: Kd: 704 nM; koff: 0.0476 s⁻¹; kon: 67500 M⁻¹ s⁻¹

Q: Which results are given for GKCSTRGRKMMRRKK [peptide of SEQ ID NO: 4 (M3)]?
A: Kd: 940 nM; koff: 0.0679 s⁻¹; kon: 72200 M⁻¹ s⁻¹

Q: With GKCSTRGRKCMRRKK [peptide of SEQ ID NO: 2 (M1)] as the binder, how does the Kd read?
A: 924 nM

Q: What about the koff of the same binder?
A: 0.0687 s⁻¹

Q: What about the kon of the same binder?
A: 74400 M⁻¹ s⁻¹

Q: For GKMSTRGRKMCRRKK [peptide of SEQ ID NO: 6 (M5)], which Kd is on record?
A: 444 nM

Q: What about the koff of the same binder?
A: 0.0446 s⁻¹

Q: What about the kon of the same binder?
A: 100000 M⁻¹ s⁻¹
